The text below walks through data of patent publication US20110300138A1 (published 2011).

Assay [1] addresses wild type TSHR expressed in CHO cells (human) (UniProt P16473). Kind of assay: cell-based or functional assay.
Assay [2] concerns the target TSHR with Phe134 mutated to Ala, expressed in CHO cells (human) (UniProt P16473). Kind of assay: cell-based or functional assay.
Assay [3] addresses thyroid stimulating hormone receptor (TSHR), full length human TSHR (human) (UniProt P16473). Kind of assay: TSH-biotin competition ELISA, TSHR coated wells; 0.01 µg/mL in assay buffer.
Assay [4] deals with TSHR (thyroid stimulating hormone receptor), full length human (human) (UniProt P16473). Kind of assay: competitor ^125I-K1-70 IgG, TSHR coated tubes; 10 µg/mL in HBD.
Assay [5] addresses TSHR (full length) coated on tubes (human) (UniProt P16473). The assay is described as follows: inhibition of 125I-K1-18 Fab (competitor) binding to TSHR coated tubes; test sample 100 µg/mL in assay buffer.
For assay [6] the target is unchanged. Kind of assay: inhibition of 125I-K1-18 Fab (competitor) binding to TSHR coated tubes; test sample 10 µg/mL in HBD serum.
The target in assay [7] is TSH receptor (full length human TSHR) (human) (UniProt P16473). Kind of assay: competition ELISA: inhibition of M22 Fab-peroxidase (competitor) binding to TSHR coated wells; test sample at 100 µg/mL diluted in assay buffer.
For assay [8], the target named is TSH receptor (TSHR), full length human, coated on tubes (human) (UniProt P16473). The assay is described as follows: inhibition of 125I-K1-18 IgG binding to TSHR coated tubes; competitor 125I-K1-18 IgG; sample at 10 µg/mL in HBD serum.
Assay [9] shares this target. Kind of assay: inhibition of 125I-K1-18 IgG binding to TSHR coated tubes; competitor 125I-K1-18 IgG; sample at 0.01 µg/mL in assay buffer.
Assay [10] concerns the target TSHR (full length) coated on tubes (human) (UniProt P16473). The assay is described as follows: inhibition of 125I-K1-18 Fab (competitor) binding to TSHR coated tubes; negative control 1 µg/mL in HBD serum.
Assay [11] addresses TSH receptor (TSHR) coated on tubes (human) (UniProt P16473). The assay is described as follows: inhibition of 125I-K1-70 IgG binding to TSHR coated tubes; negative control 10 µg/mL in HBD serum pool.
The target of assay [12] is TSHR (full length) coated on tubes (human) (UniProt P16473). The assay is described as follows: inhibition of 125I-K1-18 Fab (competitor) binding to TSHR coated tubes; negative control 10 µg/mL in HBD serum.
Assay [13] addresses TSH receptor (TSHR), full length human, coated on tubes (human) (UniProt P16473). The assay is described as follows: inhibition of 125I-K1-18 IgG binding to TSHR coated tubes; competitor 125I-K1-18 IgG; negative control sample at 1 µg/mL in HBD serum.
Assay [14] deals with thyroid stimulating hormone receptor (TSHR), full length human TSHR (human) (UniProt P16473). The assay is described as follows: TSH-biotin competition ELISA, TSHR coated wells; negative control, 0.01 µg/mL in HBD serum.
Assay [15] deals with TSH receptor (TSHR) coated on tubes (human) (UniProt P16473). Kind of assay: inhibition of 125I-K1-70 IgG binding to TSHR coated tubes; negative control 1 µg/mL in HBD serum pool; duplicate determination.
Assay [16] has the same target. Kind of assay: inhibition of 125I-K1-70 IgG binding to TSHR coated tubes; negative control 1 µg/mL in assay buffer.
Assay [17] has as its target TSH receptor (TSHR), full length human, coated on tubes (human) (UniProt P16473). Kind of assay: inhibition of 125I-TSH binding to TSHR coated tubes; 100 µg/mL, diluted in HBD serum pool.
For assay [18], the target named is thyroid stimulating hormone receptor (TSHR), full length human TSHR (human) (UniProt P16473). The assay is described as follows: TSH-biotin competition ELISA, TSHR coated wells; negative control, 10 µg/mL in HBD serum.
Assay [19] addresses TSH receptor (TSHR), full length human, coated on tubes (human) (UniProt P16473). The assay is described as follows: inhibition of 125I-K1-18 IgG (competitor) binding to TSHR coated tubes; test sample at 100 µg/mL in HBD serum pool.
The target is the same in assay [20]. The assay is described as follows: inhibition of 125I-TSH binding to TSHR coated tubes; 10 µg/mL, diluted in assay buffer.
Assay [21] shares this target. The assay is described as follows: inhibition of 125I-K1-18 IgG (competitor) binding to TSHR coated tubes; test sample at 1 µg/mL in assay buffer.
The target of assay [22] is TSH receptor (TSHR) coated on tubes (human) (UniProt P16473). The assay is described as follows: inhibition of 125I-K1-70 IgG binding to TSHR coated tubes; sample 0.01 µg/mL in HBD serum pool.
Assay [23] has as its target thyroid stimulating hormone receptor (TSHR), full length, coated on tubes (human) (UniProt P16473). The assay is described as follows: inhibition of 125I-TSH binding, TSHR coated tubes; antibody 0.1 µg/mL in assay buffer; mean of duplicate.
Assay [24] concerns the target human TSH receptor (full length) coated on ELISA plate wells (human) (UniProt P16473). The assay is described as follows: TSH-biotin binding inhibition ELISA, TSHR coated wells; 100 µg/mL in assay buffer.
For assay [25], the target named is thyroid stimulating hormone receptor (full length human TSHR) (human) (UniProt P16473). Kind of assay: ELISA: inhibition of M22 Fab-peroxidase (competitor) binding to TSHR coated wells; 0.01 µg/mL, diluted in assay buffer.
Assay [26] concerns the target TSH receptor (TSHR), full length human, coated on tubes (human) (UniProt P16473). The assay is described as follows: inhibition of 125I-TSH binding to TSHR coated tubes; 1 µg/mL, diluted in HBD serum pool.
The target is the same in assay [27]. The assay is described as follows: inhibition of 125I-K1-18 IgG (competitor) binding to TSHR coated tubes; test sample at 100 µg/mL in assay buffer.

As for TSH (ligand), in [1], the Cyclic AMP produced; TSH 3 ng/mL is 108 pmol/mL and the Cyclic AMP produced; TSH (2) amounted to 142 pmol/mL. In [2], this molecule gave a % inhibition of TSH stimulation; TSH (2) of 9%, a Cyclic AMP produced; TSH 3 ng/mL of 111 pmol/mL, a Cyclic AMP produced; TSH (2) of 102 pmol/mL and a Mutated/wild type (%) of cyclic AMP produced; TSH 3 ng/mL of 103%. The molecule also displayed a Mutated/wild type (%) of cyclic AMP produced; TSH (2) in assay [2] of 71%.

For the molecule 9D33 IgG (antibody), the Inhibition of binding (%) in assay [3] was 15.3%; in [4], 48%; in assay [5], 81.5%; in assay [6], 73.9%; in [7] it was 64.1%; in [8], 68.1%. In addition, in assay [9], the Inhibition of binding (%) turned out to be 20.9%.

On to 5B3 IgG (antibody), for which the Inhibition of binding (%) in assay [10] is -3.1%; in assay [11] it was -0.7%; in assay [12] it was -0.1%; in assay [13], -6.2%; in [14], -5.1%; in assay [15], 0%. For the same molecule, the Inhibition of binding (%) in [16] is -2.6%; in assay [17], -3.9%; in assay [18], -1.6%.

B1: 5C9 IgG (antibody, from another filing, V domains shown)
VH: EVQLVESGGGLIQPGGSLRLSCAASGFTVSSNYMSWVRQAPGKGLEWVSVTYSGGSTSYADSVKGRFTISRDNSKNTLYLQMNSLRAEDTAVYYCARGGRYCSSISCYARSGCDYWGQGTLVTVSS
VL: AIQMTQSPSSLSASVGDRVTITCRASQSISNYLNWYQQKPGKAPKLLIYAASSLQSGVPSRFSGSGSGTDFTLTISSLQPEDFATYYCQQSYSSPSTTFGQGTKLEIK
Consider B1, for which the Inhibition of binding (%) in assay [19] was determined as 57.7%; in assay [20], 76.7%; in assay [21], 48%; in [22] it was 2.8%; in assay [23] it was 21.3%; in assay [25], 0.6%. Further, the results for the Inhibition of binding (%) in assay [26] and in assay [27] were 24.8% and 91.3%, respectively. This molecule also had a % inhibition of TSH-biotin binding in assay [24] of 91.2%.
